Molecular target: cortactin SH3 domain (UniProt Q60598 488-546)
Assay: NMR titration

cortactin SH3 domain, sequence (Q60598 488-546): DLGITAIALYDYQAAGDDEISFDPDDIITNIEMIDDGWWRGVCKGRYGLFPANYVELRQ

Going from EFTGPPQKPPRLGAQS [Pyk2-PRR3 peptide] to TAFQEPAPKASQAQYRPPP [Pyk2 super-mutant peptide], the Kd rises from 650 ± 10 µM to greater than 1000 µM.

For TAFQEPPPKPSRPKYRPPP [Pyk2-PRR2 peptide], the Kd was 40 ± 5 µM.

Reference: article doi:10.1101/2022.04.06.487297 (bioRxiv, 2022)
